Test results published in patent US11324837B2, “Hybrid membrane-coated nanoparticle composites and methods of making and using the same” (Portland State University, priority 2016, dated 2022).

Target: T1, TAMRA-Aβ1-42 (Homo sapiens, UniProt P05067)
T1 construct: fluorophore-labeled Aβ (TAMRA-Aβ1-42)
Experiment: Fluorescence anisotropy of Aβ binding to AuNP surface
Settings: intrinsic, free peptide
Text: Fluorescence anisotropy also confirmed Aβ binding to AuNP surface. This technique reports on the change in the molecular rotation of the dye attached to the free TAMRA-Aβ1-42 peptide and when it binds to something larger than itself under polarized light. The steady-state anisotropy (r) is derived from the following equation in which r=(IVV−GIVH)/(IVV+2GIVH), where IVV and IVH are the fluorescence intensities, the subscripts indicate the orientation of the excitation and emission polarizer's, and G=IHV/IHH is the wavelength dependent sensitivity of the instrument. In a typical experiment the intrinsic anisotropy of TAMRA-Aβ1-42 (ravg=0.12) increases in the presence of Au-SOA-PC-HT (ravg=0.35) (FIG. 18). The resulting change in anisotropy (Δr=0.23) is due to a large change in the hydrodynamic radius (size) of the small TAMRA-Aβ1-42 when it binds to the much larger Au-SOA-PC-HT nanoparticles. […] Note that Cu^II pre-incubated with TAMRA-Aβ1-42 when added to Au-SOA-PC-HT has the same 0.11 change in anisotropy (FIG. 18). Possible explanations for the additional increase in r include metal ion reassembly of peptides bound to the membrane or bridging interactions between the Au-SOA-PC-HT-TAMRA-Aβ1-42 species. Alternatively, metals could arrange TAMRA-Aβ1-42 within the membrane bilayer to slow its molecular rotation. […]

T1 sequence (P05067 672-713): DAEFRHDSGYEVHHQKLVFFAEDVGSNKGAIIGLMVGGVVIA

TAMRA-Aβ1-42: fluorophore-labeled Aβ
steady-state anisotropy ravg of TAMRA-Aβ1-42: 0.12
